Laboratory results published in publication PMC12609076.

Experiments:
[1] = target: Bradyrhizobium japonicum SemiSWEET (Bradyrhizobium japonicum); assay: not stated; BjSemiSWEET in detergent (fig. S8A); method not given
[2] = target: Bradyrhizobium japonicum SemiSWEET (Bradyrhizobium japonicum); assay: not stated; BjSemiSWEET in liposomes (fig. S8B); method not given

stoichiometry N [1]: 2 | stoichiometry N [2]: 2
Substance: Bradyrhizobium japonicum SemiSWEET (natural protein)
